The record followed here is patent publication US20180140578A1 (University of Texas, published 2018).

Assay [1] deals with T1, DCAF15-3xFLAG (human, UniProt Q66K64 1-600).
T1 construct: also called DDB1/DCAF15-3xFLAG; not shown: C-terminal 3xFLAG tag
Put plainly: pull-down of 100 nM RBM39Δ150 P272S by DCAF15-3xFLAG on anti-FLAG beads with rising indisulam, western blot (FIG. 4C).

Assay [2] has as its target T1, DCAF15-3xFLAG. Put plainly: pull-down by DCAF15-3xFLAG on anti-FLAG beads, western blot (FIG. 4C).
The next assay deals with T2, CUL4B (human, UniProt Q13620 1-913, limits assumed).
T2 construct: also called Cullin 4B
Put plainly: anti-FLAG co-immunoprecipitation from HCT-116 cells, western blot (FIG. 3E). (In general: Immunoblotting shows a protein as a band on a membrane.)

The target in a further assay is T3, CUL4A (human, UniProt Q13619 1-759, limits assumed).
T3 construct: also called Cullin 4A
The assay is described as above.

The next assay has as its target T4, DDB1 (human, UniProt Q16531 2-1140).
T4 construct: also called Q16531_DDB1_HUMAN
Put plainly: anti-FLAG immunopurification from HCT-116 lysate supplemented with indisulam, western blot (FIG. 4A).

Numbering of substitutions follows the chain as printed. Names may count otherwise.

T1 sequence (Q66K64 whole entry): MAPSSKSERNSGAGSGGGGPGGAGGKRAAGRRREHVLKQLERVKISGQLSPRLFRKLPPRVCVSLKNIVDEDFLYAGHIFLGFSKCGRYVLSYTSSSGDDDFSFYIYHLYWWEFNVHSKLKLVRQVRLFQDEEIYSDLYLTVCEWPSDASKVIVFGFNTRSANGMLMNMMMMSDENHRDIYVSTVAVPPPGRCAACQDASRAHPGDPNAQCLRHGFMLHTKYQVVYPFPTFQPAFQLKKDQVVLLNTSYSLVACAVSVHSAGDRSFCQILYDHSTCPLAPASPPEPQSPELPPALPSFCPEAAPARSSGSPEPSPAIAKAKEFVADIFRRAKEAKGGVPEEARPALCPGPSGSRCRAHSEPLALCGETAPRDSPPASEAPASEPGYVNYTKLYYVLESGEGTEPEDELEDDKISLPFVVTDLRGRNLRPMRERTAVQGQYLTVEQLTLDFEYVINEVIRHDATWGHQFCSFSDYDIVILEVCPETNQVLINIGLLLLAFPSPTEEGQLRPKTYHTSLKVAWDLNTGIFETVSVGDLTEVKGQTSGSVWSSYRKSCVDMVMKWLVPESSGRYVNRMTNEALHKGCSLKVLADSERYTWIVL
T3 sequence (Q13619 whole entry): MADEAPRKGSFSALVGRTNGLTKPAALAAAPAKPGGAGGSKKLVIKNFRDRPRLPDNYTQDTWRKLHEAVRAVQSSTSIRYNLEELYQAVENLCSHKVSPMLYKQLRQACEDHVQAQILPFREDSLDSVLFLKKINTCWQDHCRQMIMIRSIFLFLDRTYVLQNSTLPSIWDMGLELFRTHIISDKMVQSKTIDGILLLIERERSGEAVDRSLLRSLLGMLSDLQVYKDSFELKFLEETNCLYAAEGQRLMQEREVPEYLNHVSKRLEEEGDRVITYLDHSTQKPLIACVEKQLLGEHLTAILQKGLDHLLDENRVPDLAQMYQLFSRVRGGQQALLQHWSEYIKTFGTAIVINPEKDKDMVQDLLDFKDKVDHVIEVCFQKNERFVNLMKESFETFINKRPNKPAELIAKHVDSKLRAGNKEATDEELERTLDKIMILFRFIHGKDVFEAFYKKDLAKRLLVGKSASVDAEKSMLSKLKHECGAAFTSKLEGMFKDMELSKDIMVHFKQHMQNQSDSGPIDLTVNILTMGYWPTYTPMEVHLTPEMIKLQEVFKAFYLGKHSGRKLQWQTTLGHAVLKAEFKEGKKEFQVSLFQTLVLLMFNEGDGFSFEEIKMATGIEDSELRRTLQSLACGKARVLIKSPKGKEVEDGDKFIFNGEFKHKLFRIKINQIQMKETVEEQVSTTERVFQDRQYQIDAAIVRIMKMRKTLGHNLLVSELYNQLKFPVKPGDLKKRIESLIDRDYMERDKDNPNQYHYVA
T4 sequence (Q16531 2-1140 limits assumed): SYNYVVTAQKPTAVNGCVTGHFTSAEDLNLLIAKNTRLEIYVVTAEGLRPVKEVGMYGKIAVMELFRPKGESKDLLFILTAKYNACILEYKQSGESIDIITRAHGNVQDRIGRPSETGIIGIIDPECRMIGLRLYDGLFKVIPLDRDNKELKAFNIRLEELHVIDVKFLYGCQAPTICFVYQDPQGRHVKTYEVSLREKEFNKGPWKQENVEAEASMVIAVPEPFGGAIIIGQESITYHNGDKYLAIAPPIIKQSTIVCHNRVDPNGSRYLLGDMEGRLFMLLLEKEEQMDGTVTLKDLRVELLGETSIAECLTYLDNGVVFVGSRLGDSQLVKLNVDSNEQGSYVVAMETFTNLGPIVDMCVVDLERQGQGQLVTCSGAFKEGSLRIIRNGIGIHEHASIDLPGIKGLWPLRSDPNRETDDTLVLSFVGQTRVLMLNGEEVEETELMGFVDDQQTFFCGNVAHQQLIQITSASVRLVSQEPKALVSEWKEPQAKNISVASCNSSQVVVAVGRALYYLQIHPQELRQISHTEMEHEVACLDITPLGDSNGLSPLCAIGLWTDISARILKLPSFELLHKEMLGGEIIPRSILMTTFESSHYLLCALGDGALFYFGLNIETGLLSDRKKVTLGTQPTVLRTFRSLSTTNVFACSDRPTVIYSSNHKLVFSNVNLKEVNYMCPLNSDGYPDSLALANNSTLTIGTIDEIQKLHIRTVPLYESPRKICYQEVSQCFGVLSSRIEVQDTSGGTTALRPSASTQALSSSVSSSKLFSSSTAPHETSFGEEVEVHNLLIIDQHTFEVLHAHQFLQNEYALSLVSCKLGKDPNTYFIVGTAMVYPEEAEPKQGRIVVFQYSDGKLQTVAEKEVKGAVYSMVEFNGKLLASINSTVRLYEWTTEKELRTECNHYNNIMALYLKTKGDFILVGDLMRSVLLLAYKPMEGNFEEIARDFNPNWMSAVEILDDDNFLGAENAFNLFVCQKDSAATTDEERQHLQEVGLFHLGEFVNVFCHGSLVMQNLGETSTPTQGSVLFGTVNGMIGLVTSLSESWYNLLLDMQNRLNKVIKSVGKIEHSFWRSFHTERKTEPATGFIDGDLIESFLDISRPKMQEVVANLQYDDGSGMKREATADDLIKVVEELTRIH
T2 sequence (Q13620 whole entry): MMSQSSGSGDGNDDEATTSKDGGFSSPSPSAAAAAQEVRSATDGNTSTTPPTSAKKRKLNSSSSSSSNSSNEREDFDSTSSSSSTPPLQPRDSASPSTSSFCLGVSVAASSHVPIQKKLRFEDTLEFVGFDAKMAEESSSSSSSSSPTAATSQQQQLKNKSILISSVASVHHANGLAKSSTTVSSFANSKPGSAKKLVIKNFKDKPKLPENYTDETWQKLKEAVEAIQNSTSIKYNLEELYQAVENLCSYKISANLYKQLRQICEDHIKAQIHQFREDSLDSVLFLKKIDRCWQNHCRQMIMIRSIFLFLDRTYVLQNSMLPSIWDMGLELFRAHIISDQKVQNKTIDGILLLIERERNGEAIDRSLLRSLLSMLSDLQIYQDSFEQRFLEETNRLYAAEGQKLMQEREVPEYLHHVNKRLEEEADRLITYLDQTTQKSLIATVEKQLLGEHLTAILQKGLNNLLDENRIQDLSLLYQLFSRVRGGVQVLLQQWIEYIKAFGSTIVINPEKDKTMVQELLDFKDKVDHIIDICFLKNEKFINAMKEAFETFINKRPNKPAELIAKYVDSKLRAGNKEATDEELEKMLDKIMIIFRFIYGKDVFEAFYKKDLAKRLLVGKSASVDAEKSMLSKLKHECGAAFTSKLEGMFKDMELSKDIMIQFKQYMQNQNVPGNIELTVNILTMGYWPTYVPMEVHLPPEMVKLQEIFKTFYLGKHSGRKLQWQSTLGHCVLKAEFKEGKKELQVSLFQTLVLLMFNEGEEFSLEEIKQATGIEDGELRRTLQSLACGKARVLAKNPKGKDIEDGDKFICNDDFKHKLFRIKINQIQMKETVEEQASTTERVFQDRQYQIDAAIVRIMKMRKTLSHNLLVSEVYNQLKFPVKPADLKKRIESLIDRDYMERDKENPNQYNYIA

B1: RBM39Δ150 P272S (other, human, UniProt Q14498 151-530, looked up)
chain: DARTVFCMQLAARIRPRDLEEFFSTVGKVRDVRMISDRNSRRSKGIAYVEFVDVSSVPLAIGLTGQRVLGVPIIVQASQAEKNRAAAMANNLQKGSAGPMRLYVGSLHFNITEDMLRGIFESFGRIESIQLMMDSETGRSKGYGFITFSDSECAKKALEQLNGFELAGRPMKVGHVTERTDASSASSFLDSDELERTGIDLGTTGRLQLMARLAEGTGLQIPPAAQQALQMSGSLAFGAVAEFSFVIDLQTRLSQQTEASALAAAASVQPLATQCFQLSNMFNPQTEEEVGWDTEIKDDVIEECNKHGGVIHIYVDKNSAQGNVYVKCPSIAAAIAAVNALHGRWFAGKMITAAYVPLPTYHNLFPDSMTATQLLVPSRR
notes: domain: RRM1, RRM2, and RRM3 domains; Sf9 expression as for RBM39Δ150
For the molecule B1, the “fold higher indisulam concentration required for recruitment, against wild type RBM39Δ150” value with DCAF15-3xFLAG [1] came to 100 fold.

B2: RBM39Δ150 E271Q (other, human, UniProt Q14498 151-530, looked up)
chain: B1 chain with E121Q, S122P
notes: domain: RRM1, RRM2, and RRM3 domains; Sf9 expression as for RBM39Δ150; also called E271Q variant of RBM39Δ150
Turning to B2, the binding result with DCAF15-3xFLAG [2] was “no binding (tested: 10 µM indisulam)”.

B3: RBM39 G268V-3xFLAG (other, human, UniProt Q14498 1-530, looked up)
chain: MADDIDIEAMLEAPYKKDENKLSSANGHEERSKKRKKSKSRSRSHERKRSKSKERKRSRDRERKKSKSRERKRSRSKERRRSRSRSRDRRFRGRYRSPYSGPKFNSAIRGKIGLPHSIKLSRRRSRSKSPFRKDKSPVREPIDNLTPEERDARTVFCMQLAARIRPRDLEEFFSTVGKVRDVRMISDRNSRRSKGIAYVEFVDVSSVPLAIGLTGQRVLGVPIIVQASQAEKNRAAAMANNLQKGSAGPMRLYVGSLHFNITEDMLRVIFEPFGRIESIQLMMDSETGRSKGYGFITFSDSECAKKALEQLNGFELAGRPMKVGHVTERTDASSASSFLDSDELERTGIDLGTTGRLQLMARLAEGTGLQIPPAAQQALQMSGSLAFGAVAEFSFVIDLQTRLSQQTEASALAAAASVQPLATQCFQLSNMFNPQTEEEVGWDTEIKDDVIEECNKHGGVIHIYVDKNSAQGNVYVKCPSIAAAIAAVNALHGRWFAGKMITAAYVPLPTYHNLFPDSMTATQLLVPSRR
notes: From HCT-116 cells; for the ubiquitination assay expressed from pCDNA3.1 in 293T cells; also called RBM39-3xFLAG G268V; not shown: C-terminal 3xFLAG tag
Turning to B3, the binding result with CUL4B, with CUL4A and in the assay with DDB1 was “no binding (tested: 10 µM indisulam)” each time.
